Experimental data from patent publication US20220017616A1 (Amgen, published 2022).
Positions count from the first letter of the chain named.

T1: human CD112R (human, UniProt Q6DKI7 41-326)
T1 construct: also called huCD112R; PVRIG
T1 sequence: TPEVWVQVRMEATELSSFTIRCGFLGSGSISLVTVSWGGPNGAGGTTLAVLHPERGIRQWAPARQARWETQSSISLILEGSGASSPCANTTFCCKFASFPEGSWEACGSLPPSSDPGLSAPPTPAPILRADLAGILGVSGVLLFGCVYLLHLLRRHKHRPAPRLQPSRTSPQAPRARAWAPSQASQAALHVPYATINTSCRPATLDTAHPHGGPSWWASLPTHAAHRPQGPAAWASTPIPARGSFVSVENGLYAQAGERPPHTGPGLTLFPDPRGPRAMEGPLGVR

T2: human TIGIT (human, UniProt Q495A1 22-244)
T2 sequence: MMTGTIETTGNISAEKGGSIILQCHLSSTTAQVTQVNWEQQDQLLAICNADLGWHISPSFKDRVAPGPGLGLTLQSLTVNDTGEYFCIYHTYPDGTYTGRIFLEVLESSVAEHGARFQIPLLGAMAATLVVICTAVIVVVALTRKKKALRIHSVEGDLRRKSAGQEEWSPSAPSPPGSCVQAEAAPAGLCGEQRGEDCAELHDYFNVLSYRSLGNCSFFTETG

T3: huTIGIT (PL44403) (human, UniProt Q495A1 22-141)
T3 construct: Soluble protein; also called Human TIGIT (Octet analyte, mono-Fc tag)
T3 sequence: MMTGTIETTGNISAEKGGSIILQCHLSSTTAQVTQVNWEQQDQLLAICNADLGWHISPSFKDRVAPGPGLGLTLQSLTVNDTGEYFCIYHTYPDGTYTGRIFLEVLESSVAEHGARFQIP

T4: biotinylated human CD112R-Fc (human, UniProt Q6DKI7 41-171, limits assumed, biotinylated)
T4 construct: also called CD112R receptor (on streptavidin beads)
T4 sequence: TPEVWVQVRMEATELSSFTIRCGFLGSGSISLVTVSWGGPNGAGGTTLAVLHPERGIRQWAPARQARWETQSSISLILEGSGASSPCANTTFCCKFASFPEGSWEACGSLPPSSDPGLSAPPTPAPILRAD

T5: cynomolgus monkey CD112R (cynomolgus monkey)
T5 construct: also called cyno CD112R
T5 chain: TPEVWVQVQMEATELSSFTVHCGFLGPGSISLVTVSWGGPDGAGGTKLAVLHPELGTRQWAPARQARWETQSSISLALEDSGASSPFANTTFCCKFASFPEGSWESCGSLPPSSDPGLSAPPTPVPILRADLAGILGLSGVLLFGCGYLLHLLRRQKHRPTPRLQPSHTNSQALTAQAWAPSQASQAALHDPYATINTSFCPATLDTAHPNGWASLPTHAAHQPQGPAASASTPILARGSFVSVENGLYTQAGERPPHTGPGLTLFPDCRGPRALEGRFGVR

B1: 27G12 (antibody, V domains shown)
VH: QVQLVQSGGEVKKPGASVKVSCKASGFTFTSYDINWVRQATGQGLEWMGWMNHYSGDSDYAQKLQGRVIITRNTSITTAYMELSSLRSEDTAVYYCGRERFPFGMDVWGQGTTVTVSS
VL: DIQMTHSPSSLSASIGDRVTITCRASQGIRNELGWYQKKPGKAPKRLIYSASSLQSGVPSRFSGSGSGTEFTLTISSLQPEDFATYYCLQHNTYPLTFGGGTKVEIK
notes: Fully human XenoMouse antibody, tested as hybridoma supernatant
B2: 31B3 (antibody, V domains shown)
VH: QVQLVESGGGVVQPGRSLRLSCAASGFTFSYYGMHWVRQAPGKGLEWVALISYDGNNKYYVDSVRGRFTISRDNSKNTLSLQMNSLRAEDTAVYYCAREIFGESYYYGMDVWGQGTTVTVSS
VL: EIVMTQSPATLSVSPGERATLSCRASQSISRNLAWYQQKPGQAPRLLIYGASIRATVIPARFSGSGSGTEFTLTISSLQSEDFAIYYCQQYNNWMCSFGQGTKLEIK
notes: as for B1
B3: 1E1 (antibody, V domains shown)
VH: QVQLVQSGAEVKKPGASVKVSCQASGYTFTDYYIYWVRQAPGQGLEWMGWINPNSGGTNYAQKFQGRVTMTRDTSISTAYIELSRLRSDDTAVYYCAREDNFNGMDVWGQGTTVTVSS
VL: DIQMTQSPSSLSASVGDRVTITCRASQGIRNDLGWYQQKPGKAPKRLIYAASSLQSGVPSRFSGSGSGTEFTLTISSLQPEDFATYYCLQLNSYPLTFGGGTKVEIKR
notes: Fully human XenoMouse antibody, tested as hybridoma supernatant or purified mAb; also called 18C10
B4: 29E10 (antibody, V domains shown)
VH: EVQLVESGGGLVQPGGSLRLSCAASGFTFRNYDMHWVRQVPGKGLEWVSDIGNSGETYYLGSVKGRFTISRENAKNSLYLQMNSLRAGDTAVYYCVREEFGYGMDVWGQGTTVTVSS
VL: B3 VL with L91H
notes: as for B1
B5: 24F1 (antibody, V domains shown)
VH: EVQLVESGGGLVQPGGSLRLSCAASGFTFSRDDMHWVRQATGKGLEWVAGIDNAGDTYYPGSVKGRFTISRENAKNSLYLQMNSLRAGDTAIYYCAREGQWPYGMDVWGQGTTVTVSS
VL: B3 VL with A50S, P59S, L91S
notes: as for B1
B6: 66H9 (antibody, V domains shown)
VH: QVQLQESGPGLVKPSQTLSLTCTVSGGSISSVYFYWNWIRQHPGKGLEWIGYIYYSGGTYYNPSLRSRVTISVDTSKNQFSLKLNSVTAADTAVYYCARGSIAAGGGYFYYNDMDVWGQGTTVTVSS
VL: EIVLTQSPDFQSVTPKEKVAITCRASQSIGSSLHWYQQKPDQSPKPLIKYVSQSFSGVPSRFSGSGSGTDFTLTINSLEAEDAATYYCHQSSSLPLTFGGGTKVEIKR
notes: Fully human XenoMouse antibody, tested as hybridoma supernatant or purified mAb
B7: 55G7 (antibody, V domains shown)
VH: QVQLVESGGGVVQPGRSLRLSCAASGFTFSSYGMHWVRQAPGKGLEWVALIWFDESNIYYADSVKGRFTISRDNSKNTLYLQMNSLRAEDTAVYFCARGYDLLTGYYNFDFWGLGTLVTVSA
VL: QAGLTQPPSVSKGLRQTATLTCTGNTNNVGNRGAAWLQQHQGHPPKLLSYRNNNRPSGISERLSASRSGNTASLTITGLQPEDEADYYCSAWDSSLSAWVFGGGTKLTVLG
notes: as for B6
B8: 58A7 (antibody, V domains shown)
VH: QVQLQESGPGLVKPSQTLSLTCTVSGGSISSGGYYWNWIRQHPGKGLEWIGYIYYSGSTFYNPSLKSRVIISVDTSKNQFSLKLSSVTAADTAVYYCARAPRYNWNYGWFDPWGQGTLVTVSS
VL: EIVLTQSPGTLSLSPGERATLSCRASQNVSSTYLAWYQQKPGQAPRLLFYGASSRATGIPDRFSRSGSGTDFTLTISRLEPEDFAVYYCQQYDVSPWTFGQGTKVEIK
notes: Tested as hybridoma supernatant or purified mAb; also called 48B7
B9: 4G10 (antibody, V domains shown)
VH: QVQLQESGPGLVNPSQTLSLTCIVSGGSIRSGDYYWSWIRQHPGKGLEWIGYIYYSGGTYYNPSLKSRVIISVDTTKNQFSLKLSSMTAADTAVYYCARGSIAARSGYFYFSGLDVWGQGPTVTVSS
VL: EIVLTQTPLSLSVTPGQPASISCKSSQSLLPSDGKTYLSWYLQKPGLPPQVLIYEVSNRFSGVPDRFSGSGSGTDFTLKISRVEAEDVGVYYCMQSIQLPLTFGGGTKVEIKR
notes: as for B6
B10: 39D2 (antibody, V domains shown)
VH: QVQLVQSGAEVKKPGASVKVSCKASGYTFTGYYIHWVRQAPGQGLEWMGWISPTSGATGYAQNFQGRVTMTRDTSITTAYMELSRLRSDDTAVYYCARDSNSVLYYYGMDVWGQGTTVTVSS
VL: DIEMTQAPSSLSASVGDRVTITCRASQTIRRYLNWYQQKPGKAPKLLIYAASSLQNGVPSRFSGSVSGTDFTLTISSLQPEDFATYYCQQSYSTPLTFGGGTKVGIRR
notes: as for B6
B11: 11E4 (antibody, V domains shown)
VH: QVQLQESGPGLVKPSQTLSLTCTVSGGSISSGGYYWSWIRQHPGKGLEWIGYIYYSGSTSYNPSLKSRVTISVDTSKNQFSLKLSSVTAADTAVYYCARDLDYDILTGYPRWDYGMDVWGQGTTVTVSS
VL: EIVMTQSPATLSVSPGERATLSCRASQSVSNNLAWYQQKPGQAPRLLIYSESTRATGIPDRFSGSGSGTEFTLTISSLQSEDFAVYYCQQHNNWPRTFGQGTKVEIKR
notes: as for B1

target: T1, human CD112R; test: flow cytometry, titration on activated primary human T cells
Method: (§1) Briefly, cultured human T cells and cyno PBMCs were incubated with lead panel starting at 3 μg/mL for human or 5 μg/mL for cyno and titrated 1 in 3 for the lowest concentration of 0.001 μg/mL for human and 0.002 μg/mL for cyno. […] For analysis, FCS Express was used to obtain Geo Means and Screener was used to determine fold over Isotype control, titration curves and EC50 values.

EC50 | Binder
0.089 µg/mL | B1
0.127 µg/mL | B2
0.02 µg/mL | B3
0.033 µg/mL | B4
0.034 µg/mL | B5

target: T6, cynomolgus TIGIT (cynomolgus monkey); test: flow cytometry, 1 µg/mL on activated primary cyno PBMCs, fold over isotype control
T6 construct: Cell-surface form; also called cyno TIGIT
T6 sequence (chain, as listed by the source): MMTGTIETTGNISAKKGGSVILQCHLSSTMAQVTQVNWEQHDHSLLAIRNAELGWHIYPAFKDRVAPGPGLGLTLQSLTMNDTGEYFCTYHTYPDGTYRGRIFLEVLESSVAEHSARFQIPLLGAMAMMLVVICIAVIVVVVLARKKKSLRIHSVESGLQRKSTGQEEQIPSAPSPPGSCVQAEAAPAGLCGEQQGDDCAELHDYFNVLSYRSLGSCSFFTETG
Method: (§2) The binding of hybridoma supernatants to TIGIT expressed by primary human and cynomolgus monkey cells were tested by flow cytometry. For human primary cell binding assay, purified human T cells (Biological Specialty Corp.) were thawed and suspended at a concentration of 2.5×10⁶ cells/mL. […] After 72 hours, cells were removed, washed and suspended at a concentration of 0.5×10⁶ cells/mL with 10 ng/mL of IL-2 (Pepro Tech). Cells were then incubated for another 48 to 72 hours at 37° C./5% CO₂. For cynomolgus primary cell binding assay, cynomolgus PBMCs (SNBL) were thawed and suspended in a concentration between 4×10⁶ and 5×10⁶ cells/mL. […] After 72 hours, cells were removed, washed and suspended at a concentration of 0.5×10E6 cells/mL with 20 ng/mL of IL-2 (Pepro Tech). Cells were then incubated for another 48 to 72 hours at 37° C./5% CO₂. After the final incubation, cells were prepared for flow cytometry by incubation with normalized hybridoma supernatants, positive control antibodies and isotype control antibodies at 1 μg/mL final concentration. […] Cells were then run on BD FACSCanto II flow cytometer to detect anti-TIGIT antibody binding.

FACS Geomean Fold | Binder
4 fold | B6
12.3 fold | B7
7.2 fold | B8

target: T2, human TIGIT; test: cell-based or functional assay

Potency [nM], Jurkat human TIGIT/IL-2-luciferase RGA, n = 1 | Potency [nM], Jurkat human TIGIT/IL-2-luciferase RGA, n = 2 | Binder
3.4 nM | 5.8 nM | B6
6.7 nM | 15 nM | B9
4.4 nM | 14.4 nM | B7
7.9 nM | 2.9 nM | B8
2 nM | 2.8 nM | B10

target: T3, huTIGIT (PL44403); test: Octet, antibody on anti-huIgG Fc capture tips, huTIGIT as analyte
Method: (§3) In the case of cynoTIGIT, association was monitored for 5 min and dissociation for 5 min. […] The limit of detection of dissociation is 4e-5 based on a minimum of 5% dissociation over 20 minutes.

Kd | Binder
< 0.1 nM | B6
< 0.2 nM | B9
< 0.1 nM | B7
< 0.1 nM | B8
< 0.1 nM | B10

target: T2, human TIGIT; test: cell-based or functional assay; remark: another data set of the same source

activity in the primary CD8 memory T-cell assay (IFN-γ release, CHO-K1-CD155+ cells) | Binder
380 pM | B10

target: T4, biotinylated human CD112R-Fc; test: flow cytometry on beads, supernatant at 5 µg/mL, competitor Alexa 647 CD112-huFc at 370 ng/mL
Method: Biotinylated human CD112R-Fc was captured on Streptavidin polystyrene beads (Spherotech, Cat. No. SVP-60-5) in FACS buffer and incubated for 30 minutes at room temperature. Beads were washed twice with FACS buffer, centrifuged to pellet the beads, supernatant removed and resuspended in FACS buffer to remove unbound protein. Biotinylated human CD112R coated beads were added to a 96-well plate. Hybridoma supernatant samples were added such that 5 μg/mL final, beads were resuspended and incubated for 1 hour at room temperature. […] Beads were washed once with FACS buffer, centrifuged to pellet the beads, supernatant removed and resuspended in FACS buffer to remove unbound ligand. Samples were then resuspended in FACS buffer and read on BD Accuri™ Flow Cytometer with an Intellicyt HyperCyt autosampler.

% of CD112 ligand prevented from binding | Binder
≥ 90% | B11
≥ 90% | B1
≥ 90% | B2
≥ 90% | B3
≥ 90% | B4
≥ 90% | B5

Target: T5, cynomolgus monkey CD112R
Test: flow cytometry, titration on activated cyno PBMCs
Method: as §1

EC50 | Binder
0.174 µg/mL | B1
0.898 µg/mL | B2
0.0087 µg/mL | B3
0.0322 µg/mL | B4
0.0334 µg/mL | B5

target: T2, human TIGIT; test: flow cytometry, 1 µg/mL on activated primary human T cells, fold over isotype control
Method: as §2

FACS Geomean Fold | Binder
4.1 fold | B6
13.5 fold | B9
4.5 fold | B7
4.5 fold | B8
13.7 fold | B10

target: T2, human TIGIT; test: flow cytometry on CHO-S cells expressing human TIGIT, competitor huCD155-Fc-Alexa 647, at 1.7 µg/mL
Method: (§4) TIGIT-binding hybridoma supernatants were then tested for their ability to block TIGIT from binding ligand. […] The 7-AAD cell viability stain was then added and the cells incubated for a further 15 minutes at 4° C., washed twice and resuspended in FACS buffer. Samples were analyzed using a BD Accuri™ Flow Cytometer and an Intellicyt HyperCyt autoSampler.

% inhibition | Binder
98% | B6
100% | B9
99% | B7
99% | B8
100% | B10

target: T7, cynoTIGIT (PL40461) (cynomolgus monkey); test: Octet, antibody on anti-huIgG Fc capture tips, cynoTIGIT as analyte
T7 construct: Soluble protein; also called Cyno TIGIT (Octet analyte)
T7 sequence (chain, as listed by the source limits assumed): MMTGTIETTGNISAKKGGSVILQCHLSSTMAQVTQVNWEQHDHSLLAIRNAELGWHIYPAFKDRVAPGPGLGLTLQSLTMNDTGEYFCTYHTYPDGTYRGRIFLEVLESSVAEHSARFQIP
Method: as §3

Kd | Binder
18 nM | B6
17 nM | B7
38 nM | B8

target: T2, human TIGIT; test: flow cytometry on CHO-S cells expressing human TIGIT, competitor CD112-Fc-Alexa 647, at 1 ug/mL
Method: as §4

% inhibition | Binder
85% | B6
91% | B9
86% | B7
88% | B8
100% | B10
